Data published in FireProtDB (doi:10.1021/bi972395d).

Details: Homo sapiens; pH 7.8; Thermal; DSC; potassium phosphate 2 mM; transition: 2; reversible: Yes; whole UniProt chain shown

B1: Superoxide dismutase [Mn], mitochondrial wild type, P04179 (protein)
chain: MLSRAVCGTSRQLAPVLGYLGSRQKHSLPDLPYDYGALEPHINAQIMQLHHSKHHAAYVNNLNVTEEKYQEALAKGDVTAQIALQPALKFNGGGHINHSIFWTNLSPNGGGEPKGELLEAIKRDFGSFDKFKEKLTAASVGVQGSGWGWLGFNKERGHLQIAACPNQDPLQGTTGLIPLLGIDVWEHAYYLQYKNVRPDYLKAIWNVINWENVTERYMACKK
With B1 the Tm was 88.9 °C and the “unfolding enthalpy (calorimetric)” value was 90.6 kcal/mol.
